Laboratory results published in patent US11167048B2, “Dual targeting ligand for cancer diagnosis and treatment” (priority 2018, dated 2021).

Experiments:
in vivo [1] = assay: in vivo; design: species or system CF-1 normal mice; conditions: CF-1, mouse, iv, total radioactivity
in vivo [2] = assay: in vivo; design: species or system ICR-SCID male mice; conditions: male, ICR-SCID, mouse, iv, total radioactivity, Brain uptake
in vivo [3] = assay: in vivo; design: species or system ICR-SCID male mice; conditions: male, ICR-SCID, mouse, iv, total radioactivity, Pancreas uptake
PSMA = molecular target: T1, PSMA (Homo sapiens, UniProt Q04609); assay: NAALADase assay with LNCaP homogenized cell membranes and [N-acetyl aspartyl ^3H-glutamate]; type: binding; conditions: LNCaP homogenized cell membranes, read-out: IC50 LNCaP cells
T1 construct: endogenous in cells; host or cells: LNCaP human prostate cancer cells, homogenized cell membranes
Description: (§1) (NAAG) as the radioligands. […] After incubation, the reaction medium was aspirated and the cells were rinsed three times with cold media. Cell-associated radioactivity was determined using a Packard Riastar gamma counter. […] The enzymatic reaction was stopped by addition of 50 μL of cold sodium phosphate buffer (0.1 M, pH=7.4). […] Scintillation cocktail was added to each fraction and the amount of radioactivity in each was determined by liquid scintillation counting.
(§2) (NAAG) as the radioligands. […] After incubation, the reaction medium was aspirated and the cells were rinsed three times with cold media. Cell-associated radioactivity was determined using a Packard Riastar gamma counter. […] For the PSMA-positive assay, the binding affinity was measured using the N-acetylated-α-linked acidic dipeptidase (NAALADase) assay. […] The enzymatic reaction was stopped by addition of 50 μL of cold sodium phosphate buffer (0.1 M, pH=7.4). […] Columns were pre-equilibrated with 0.2 M HCl prior to loading of the reaction mixture. […] Scintillation cocktail was added to each fraction and the amount of radioactivity in each was determined by liquid scintillation counting.

metastatic disease = conditions: ^68Ga-labeled agent; cited from earlier work
GRPR = molecular target: T2, GRPR (Homo sapiens, UniProt P30550); assay: Competitive displacement binding assay in GRPR-positive PC-3 cells with [^125I-(Tyr4)-BBN]; conditions: radioligand [^125I-(Tyr4)-BBN], 1 h, 37° C., read-out: IC50 PC3 cells
T2 construct: endogenous in cells; host or cells: PC-3 human prostate cancer cells (intact cells)
Description: as §1, §2

prostate tumors = conditions: newly diagnosed PCa patients; cited from earlier work

T1 sequence (Q04609 whole entry): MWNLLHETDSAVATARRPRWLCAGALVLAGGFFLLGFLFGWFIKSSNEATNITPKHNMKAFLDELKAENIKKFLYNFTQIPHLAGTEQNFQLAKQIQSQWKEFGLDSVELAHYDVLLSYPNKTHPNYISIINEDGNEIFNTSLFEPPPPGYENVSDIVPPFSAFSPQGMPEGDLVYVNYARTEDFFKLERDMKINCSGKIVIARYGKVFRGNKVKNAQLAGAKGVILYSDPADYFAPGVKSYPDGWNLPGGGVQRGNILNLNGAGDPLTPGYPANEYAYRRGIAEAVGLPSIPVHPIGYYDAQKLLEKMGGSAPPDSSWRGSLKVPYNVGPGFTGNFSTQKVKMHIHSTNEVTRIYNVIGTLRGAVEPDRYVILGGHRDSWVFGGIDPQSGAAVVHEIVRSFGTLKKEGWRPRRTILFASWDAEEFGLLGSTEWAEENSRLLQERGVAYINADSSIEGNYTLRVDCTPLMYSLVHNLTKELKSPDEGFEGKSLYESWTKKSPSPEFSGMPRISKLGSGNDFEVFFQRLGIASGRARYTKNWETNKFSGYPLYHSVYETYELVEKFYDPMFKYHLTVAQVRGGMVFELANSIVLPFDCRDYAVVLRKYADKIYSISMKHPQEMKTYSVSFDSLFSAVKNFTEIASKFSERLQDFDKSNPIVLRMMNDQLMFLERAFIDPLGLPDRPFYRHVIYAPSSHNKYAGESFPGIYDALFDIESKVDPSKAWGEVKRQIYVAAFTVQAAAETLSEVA
T2 sequence (P30550 whole entry): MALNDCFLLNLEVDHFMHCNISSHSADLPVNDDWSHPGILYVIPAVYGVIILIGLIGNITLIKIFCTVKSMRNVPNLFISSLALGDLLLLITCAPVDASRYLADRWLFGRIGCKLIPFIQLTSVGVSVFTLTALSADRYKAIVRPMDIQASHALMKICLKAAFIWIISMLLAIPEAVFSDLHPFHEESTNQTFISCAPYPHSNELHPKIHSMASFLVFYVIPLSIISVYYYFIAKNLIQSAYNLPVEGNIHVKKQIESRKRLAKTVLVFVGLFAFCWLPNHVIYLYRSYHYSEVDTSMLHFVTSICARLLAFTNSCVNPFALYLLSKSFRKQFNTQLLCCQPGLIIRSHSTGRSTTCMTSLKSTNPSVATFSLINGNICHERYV

Compound | tissue uptake at 1 h (in vivo [1]; Bone uptake) | tissue uptake at 1 h (in vivo [1]; Brain uptake) | tissue uptake at 1 h (in vivo [1]; Heart uptake) | tissue uptake at 1 h (in vivo [1]; Kidneys uptake) | tissue uptake at 1 h (in vivo [1]; L. Intestine uptake) | tissue uptake at 1 h (in vivo [1]; Liver uptake) | tissue uptake at 1 h (in vivo [1]; Lung uptake) | tissue uptake at 1 h (in vivo [1]; Muscle uptake) | tissue uptake at 1 h (in vivo [1]; Pancreas uptake) | tissue uptake at 1 h (in vivo [1]; S. Intestine uptake) | tissue uptake at 1 h (in vivo [1]; Spleen uptake) | tissue uptake at 1 h (in vivo [1]; Stomach uptake) | IC50 (PSMA) | further results
CC(C)C[C@H](NC(=O)C[C@H](O)[C@H](CC(C)C)NC(=O)[C@H](Cc1c[nH]cn1)NC(=O)CNC(=O)[C@@H](NC(=O)[C@H](C)NC(=O)[C@H](Cc1c[nH]c2ccccc12)NC(=O)[C@H](CCC(N)=O)NC(=O)[C@@H](Cc1ccccc1)NC(=O)CCCCNC(=O)[C@H](CCCCNC(=O)CN1CCN(CC(=O)O)CCN(CC(=O)O)CCN(CC(=O)O)CC1)NC(=O)CCCCCNC(=O)CC[C@H](NC(=O)N[C@@H](CCC(=O)O)C(=O)O)C(=O)O)C(C)C)C(N)=O [DUPA-6-Ahx-Lys(^111In-DOTA)-5-Ava-RM2, metal not drawn] | 0.09 ± 0.06 %ID/g | 0.02 ± 0.01 %ID/g | 0.11 ± 0.06 %ID/g | 4.92 ± 0.84 %ID/g | 0.12 ± 0.05 %ID/g | 0.15 ± 0.05 %ID/g | 0.68 ± 0.25 %ID/g | 0.06 ± 0.04 %ID/g | 1.02 ± 0.37 %ID/g | 0.26 ± 0.09 %ID/g | 0.13 ± 0.05 %ID/g | 0.23 ± 0.18 %ID/g |  | 
CC(C)C[C@H](NC(=O)C[C@H](O)[C@H](CC(C)C)NC(=O)[C@H](Cc1c[nH]cn1)NC(=O)CNC(=O)[C@@H](NC(=O)[C@H](C)NC(=O)[C@H](Cc1c[nH]c2ccccc12)NC(=O)[C@H](CCC(N)=O)NC(=O)[C@@H](Cc1ccccc1)NC(=O)CCCCCNC(=O)[C@H](CCCCNC(=O)CN1CCN(CC(=O)O)CCN(CC(=O)O)CCN(CC(=O)O)CC1)NC(=O)CCCCCNC(=O)CC[C@H](NC(=O)N[C@@H](CCC(=O)O)C(=O)O)C(=O)O)C(C)C)C(N)=O [DUPA-6-Ahx-Lys(^111In-DOTA)-6-Ahx-RM2, metal not drawn] | 0.08 ± 0.06 %ID/g | 0.03 ± 0.04 %ID/g | 0.16 ± 0.22 %ID/g | 2.84 ± 0.64 %ID/g | 0.14 ± 0.12 %ID/g | 0.23 ± 0.14 %ID/g | 0.86 ± 0.7 %ID/g | 0.07 ± 0.07 %ID/g | 0.19 ± 0.19 %ID/g | 0.22 ± 0.13 %ID/g | 0.12 ± 0.13 %ID/g | 0.14 ± 0.11 %ID/g |  | 
CC(C)C[C@H](NC(=O)C[C@H](O)[C@H](CC(C)C)NC(=O)[C@H](Cc1c[nH]cn1)NC(=O)CNC(=O)[C@@H](NC(=O)[C@H](C)NC(=O)[C@H](Cc1c[nH]c2ccccc12)NC(=O)[C@H](CCC(N)=O)NC(=O)[C@@H](Cc1ccccc1)NC(=O)CCCCCCCNC(=O)[C@H](CCCCNC(=O)CN1CCN(CC(=O)O)CCN(CC(=O)O)CCN(CC(=O)O)CC1)NC(=O)CCCCCNC(=O)CC[C@H](NC(=O)N[C@@H](CCC(=O)O)C(=O)O)C(=O)O)C(C)C)C(N)=O [DUPA-6-Ahx-Lys(^111In-DOTA)-8-Aoc-RM2, metal not drawn] | 0.14 ± 0.04 %ID/g | 0.02 %ID/g | 0.2 ± 0.14 %ID/g | 1.37 ± 0.31 %ID/g | 0.49 ± 0.25 %ID/g | 0.38 ± 0.04 %ID/g | 0.37 ± 0.03 %ID/g | 0.1 ± 0.01 %ID/g | 5.45 ± 0.47 %ID/g |  | 0.49 ± 0.34 %ID/g | 1.73 ± 2.49 %ID/g |  | tissue uptake at 24 h (in vivo [2]): 0.01 %ID/g; tissue uptake at 4 h (in vivo [3]): 0.58 ± 0.1 %ID/g
CC(C)C[C@H](NC(=O)C[C@H](O)[C@H](CC(C)C)NC(=O)[C@H](Cc1c[nH]cn1)NC(=O)CNC(=O)[C@@H](NC(=O)[C@H](C)NC(=O)[C@H](Cc1c[nH]c2ccccc12)NC(=O)[C@H](CCC(N)=O)NC(=O)[C@@H](Cc1ccccc1)NC(=O)c1ccc(NC(=O)[C@H](CCCCNC(=O)CN2CCN(CC(=O)O)CCN(CC(=O)O)CCN(CC(=O)O)CC2)NC(=O)CCCCCNC(=O)CC[C@H](NC(=O)N[C@@H](CCC(=O)O)C(=O)O)C(=O)O)cc1)C(C)C)C(N)=O [DUPA-6-Ahx-Lys(^111In-DOTA)-AMBA-RM2, metal not drawn] | 0.06 ± 0.04 %ID/g | 0.02 ± 0.01 %ID/g | 0.12 ± 0.05 %ID/g | 1.37 ± 0.31 %ID/g | 0.09 ± 0.02 %ID/g | 0.28 ± 0.04 %ID/g | 1.01 ± 1.15 %ID/g | 0.08 ± 0.02 %ID/g | 0.24 ± 0.06 %ID/g | 0.2 ± 0.04 %ID/g | 0.15 ± 0.04 %ID/g | 0.15 ± 0.06 %ID/g |  | 
CC(C)C[C@H](NC(=O)C[C@H](O)[C@H](CC(C)C)NC(=O)[C@H](Cc1c[nH]cn1)NC(=O)CNC(=O)[C@@H](NC(=O)[C@H](C)NC(=O)[C@H](Cc1c[nH]c2ccccc12)NC(=O)[C@H](CCC(N)=O)NC(=O)[C@@H](Cc1ccccc1)NC(=O)CCCCCNC(=O)[C@H](CCCCNC(=O)CN1CCN(CC(=O)O)CCN(CC(=O)O)CCN(CC(=O)O)CC1)NC(=O)CCCCCNC(=O)CC[C@H](NC(=O)N[C@@H](CCC(=O)O)C(=O)O)C(=O)O)C(C)C)C(N)=O [[DUPA-6-Ahx-[^natLu-DOTA]-6-Ahx-RM2]] [metal not drawn] |  |  |  |  |  |  |  |  |  |  |  |  | 13.9 ± 2.53 nM | 
CC(C)C[C@H](NC(=O)C[C@H](O)[C@H](CC(C)C)NC(=O)[C@H](Cc1c[nH]cn1)NC(=O)CNC(=O)[C@@H](NC(=O)[C@H](C)NC(=O)[C@H](Cc1c[nH]c2ccccc12)NC(=O)[C@H](CCC(N)=O)NC(=O)[C@@H](Cc1ccccc1)NC(=O)CCCCCCCNC(=O)[C@H](CCCCNC(=O)CN1CCN(CC(=O)O)CCN(CC(=O)O)CCN(CC(=O)O)CC1)NC(=O)CCCCCNC(=O)CC[C@H](NC(=O)N[C@@H](CCC(=O)O)C(=O)O)C(=O)O)C(C)C)C(N)=O [[DUPA-6-Ahx-[^natLu-DOTA]-8-Aoc-RM2]] [metal not drawn] |  |  |  |  |  |  |  |  |  |  |  |  | 16 ± 2.79 nM | 
DOTA-p-aminomethylaniline-diglycolic acid-DPhe-Gln-Trp-Ala-Val-Gly-His-Leu-NHEt (FQWAVGHL; DOTA-p-aminomethylaniline-diglycolic acid N-term, C-terminal NHEt; (1)..(1) D-phenylalanine; (1)..(1) DOTA-p-aminomethylaniline-diglycolic acid linked to D-Phenylalanine) [SB3] |  |  |  |  |  |  |  |  |  |  |  |  |  | Metastatic disease detected, fraction of patients (metastatic disease): 5/9
[DUPA-6-Ahx-Lys(M-DOTA)-6-Ahx-RM2] |  |  |  |  |  |  |  |  |  |  |  |  | 9.3 ± 2.32 nM | IC50 (GRPR): 3.99 ± 1.8 nM
^64Cu-CB-TE2A-AR06 |  |  |  |  |  |  |  |  |  |  |  |  |  | High contrast imaging of prostate tumors, fraction of men (prostate tumors): ¾
